How the values were obtained:
[1] = as currently used for treatment of cytomegalovirus infections; cited from earlier work
lung cancer cells QG-56 = test: In vitro sensitivity to GCV of MK0.6-TK-introduced cells; format: cell-based, human
Procedure: (§1) (2) Then, the tumor-specificity of this MK0.6 promoter was examined using the human tumor cells and normal fibroblasts. As described above, MK0.6-TK was introduced into various types of cells using lipofectin, and they were cultured in the presence of 400 μg/ml of G418 for ten days to obtain cells in which the MK0.6-TK gene was expressed. Thus, these gene-introduced cells were plated at 500 cells/well of 96-well culture plates, and were cultured in the presence of various concentrations of GCV for seven days. The survival rate of the cells was examined using the Cell Counting Kit-8. The results obtained are shown in FIG. 3A, FIG. 3B and FIG. 3C.

[2] = test system: normal human fibroblasts MRC-5; test: CAT assay of promoter transcription activity, normal cells; format: cell-based; conditions: FIG. 1
Procedure: (§2) Using the above plasmid, or a plasmid pCAT-Control (manufactured by Promega) having the promoter of SV40 virus, and a plasmid pCAT-Basic (manufactured by Promega) containing no promoters, gene introduction was performed on the lung cancer cells QG-56, the neuroblastoma NGP, and the normal human fibroblasts MRC-5 that were being cultured in a DMEM (Sigma) supplemented with 10% bovine fetal serum. After 10 μg each of these plasmids and lipofectin (Life Technologies) were mixed, it was allowed to stand at room temperature for 30 minutes to form a complex. Then the complex, after removing the bovine fetal serum therefrom, was contacted with the cells. Eight hours later culture medium supplemented with bovine fetal serum was added, cultured for 40 hours, and then the gene-introduced cells were disrupted by ultrasonication. After centrifugation, the supernatants were used to examine their transcription activities with the known CAT assay method (Gorman, C M et al., Mol. Cell. Biol., 2:1044–1051, 1982) using [^14C]-chloramphenicol and acetyl CoA. At this time, in order to normalize the efficiency of gene introduction, 1 μg of the β-galactosidase gene (pCH110, manufactured by Amersham) was introduced at the same time, and the β-galactosidase activity (Heromel, P. et al., Cell, 39:653–662, 1984) was determined.

[3] = test system: lung cancer cells QG-56, neuroblastoma NGP; test: CAT assay of promoter transcription activity, tumor cells; format: cell-based, human
Procedure: as §2

normal MRC-5 cells = test: In vitro sensitivity to GCV of promoter-TK gene-introduced cells (Cell Counting Kit-8 survival); format: cell-based, human; conditions: HSV-TK gene controlled by the promoter, GCV seven days, FIG. 2A
Procedure: (§3) (1) In order to examine cytotoxic effects by the transcription activity of the promoter obtained from the midkine gene, herpes simplex virus thymidine kinase (HSV-TK), a suicide gene, was ligated downstream of MK0.6 and MK2.3, and the plasmid was introduced in cells, and a prodrug gancyclovir (GCV) was added into the culture medium of the gene-introduced cells. The method of determining the cytotoxic effect by this system is as described in Moolten, FL. Cancer Gene Ther., 1:279–287, 1994.
(§4) First, the CMV promoter of pcDNA3 (manufactured by Invitrogen) was removed using NruI and HindIII sites, to which MK2.3 or Mk0.6 was inserted, and then using the EcoRV site, the HSV-TK gene excised from pMK (Brinster, R L et al., Cell, 27:223–231, 1981) with BglI and EcoRI was inserted. Each of the plasmids thus obtained (MK2.3-TK and MK0.6-TK) was introduced, as described above, using lipofectin into MRC-5 which are normal cells, or MRC-5 cells that had been immortalized by inactivating the functions of the p53 tumor suppressor gene. In order to utilize the expression of the Neo gene contained in pcDNA3 as drug resistant markers, the cells were cultured with 400 μg/ml of G418 (manufactured by Life Technologies) for ten days to establish the cells that expressed MK2.3-TK and MK0.6-TK, respectively. These cells were then plated at 500 cells/well of 96-well culture plates, and were cultured in the presence of various concentrations of GCV (manufactured by F. Hoffman-La Roche) for seven days. The survival rate of the cells was examined using the Cell Counting Kit-8 (manufactured by Dojin Kagaku). The survival of the cells at a GCV concentration of 0 μg/ml was set as 100%, and the survival for each experiment group is shown in terms of percentage in FIG. 2A and FIG. 2B.

[4] = test system: immortalized MRC-5 cells (p53 functions inactivated); test: as above; format: cell-based, human; conditions: HSV-TK gene powered by the promoter, GCV seven days, FIG. 2B
Procedure: as §3, §4

immortalized MRC-5 cells = test: Luciferase assay of MK0.6 promoter activity under expression of wild-type p53; format: cell-based, human; conditions: FIG. 5
Source text: In at least about 50% of human solid tumors, the loss of p53 gene functions is observed, and forced expression of-the wild-type p53 gene in tumors arrests tumor growth in some cases. Thus, using the MRC-5 cells that had been immortalized by destroying the functions of the p53 gene, DNA plasmid was introduced in which the luciferase gene, a reporter gene, was ligated downstream of the MK0.6 promoter, and the transcription activity of the MK0.6 promoter under the expression of the wild-type p53 gene was examined.
For this purpose, the MK0.6-CAT plasmid prepared in Example 1 was cleaved with HindIII, and the MK0.6 kb gene obtained was inserted into the HindIII site of pGL2-Basic (manufactured by Promega). […] After 48 hours-culture, the cells were disrupted using the Dual-Luciferase Reporter Assay System (manufactured by Promega), and the Firefly luciferase activity therein was determined using the reagents in the same kit. In order to normalize the efficiency of transfection, 1 μg of pRL-TK plasmid (manufactured by Promega) was included in each transfection, and the Renilla luciferase activity by the TK promoter was determined, based on which the Firefly luciferase activity was corrected.

normal fibroblasts HEF = test: In vitro sensitivity to GCV of MK0.6-TK-introduced cells; format: cell-based, human; conditions: MK0.6-TK-introduced HEF; GCV seven days; FIG. 3C
Procedure: as §1

neuroblastoma NGP cells = test: as above; format: cell-based, human; conditions: MK0.6-TK-introduced NGP; GCV seven days; FIG. 3B
Procedure: as §1

[5] = test system: lung cancer cells QG-56, PC-1, human breast cancer cells BT549; test: Luciferase assay of midkine promoter activity in tumor cells; format: cell-based; conditions: FIG. 6
Source text: Using the PCR method based on the information of the midkine genomic DNA, a DNA fragment that corresponds to a 335 bp region (MK335bp) from −285 to +50 and that has the base sequence set forth in SEQ ID NO: 4 was synthesized, and after confirming the sequences, it was inserted into pCR2.1 (manufactured by Invitrogen). After excising MK335bp from this DNA, it was ligated to pGL2-Basic (manufactured by Promega) to construct a plasmid for detecting promoter activity. Furthermore, using pGL2-Control (manufactured by Promega) containing the promoter of SV40 virus and pGL2-Basic containing a similarly constructed 609 bp midkine promoter (MK0.6), promoter activity was examined by the following method.
The lung cancer cells QG-56, PC-1, and human breast cancer cells BT549 that were cultured in DMEM (Sigma) supplemented with 10% bovine fetal serum, were transfected. After 10 μg each of these plasmids and lipofectin (manufactured by Life Technologies) were mixed, it was allowed to stand at room temperature for 30 minutes to form a complex. […] In order to normalize the efficiency of gene introduction, 1 μg of pRL-TK plasmid (manufactured by Promega) was included in each gene introduction group, and the Renilla luciferase activity by the TK promoter was determined, based on which the Firefly luciferase activity was corrected.

Molecule: Nc1nc(O)c2ncn(COC(CO)CO)c2n1 [GCV, gancyclovir, reference compound]
- maximum blood concentration of GCV [1]: 1 µg/mL
- concentration at which the cytotoxic effects by GCV was obtained (lung cancer cells QG-56; MK0.6-TK-introduced tumor cells (QG-56, NGP)): 100 ng/mL

B1: MK0.6: 0.6 kb (609 bp, −559 to +50) of the human midkine genomic gene, base sequence SEQ ID NO: 1 (nucleic acid, listed as Homo sapiens)
DNA: GCTTCCCTGCCCACCCGCGGAAACCGCCCCAGGTGGCCGCGCCCCCTCCCCAGCAGCCAGCAGGGCGCCAGGGCTGAGCCGGCCGTGGAGGGGAGCGGGTCCCGGGGGTTATACAGGCGCCGGGCGTCCGCGGCAGGCAAGAGAAGCTGAGGCCTGAGAACGGCCCGGGCCTTGGCGTACGGCAGGGGACGACCTGGGATGGGGGCAGCGGGCGGCGGCGCAGGGAGTGGGCCGGGGCCGGTGTGCGCGGGCGGGACGGGGCCGGGGTCGGGAGACCACCGCTCGGAAGATGGGGCCGGGAGAGGCCGCCGTCGCAGCGCAGAGGGCACCGGCGGGGAGACGCGAGGACGCGGGGCCGGGAACACGGACGCCGGAGTAGAAGCGCGGGGGGGGCGGGCTGGAGCGGGGGCGGGGACGCCGGGGTCGGGGGCGGTGCGGGTTTGAGGGGAGGGGGCGGGGCGGGTCCTTCCCTGGGGGGGTGGGGAGAGGGGGCGGGGGCCCATGTGACCGGCTCAGACCGGTTCTGGAGACAAAAGGGGCCGCGGCGGCCGGAGCGGGACGGGCCCGGCGCGGGAGGGAGCGAAGCAGCGCGGGCAGCGAGCGAGTGAG
- transcriptional activity compared with other midkine promoter fragments [2]: rather decreased in the normal cells
- tumor-specificity of promoter activity ([3]; tumor cells versus normal cells): specifically strong in tumors
- transcriptional activity compared with other midkine promoter fragments ([3]; tumor cells, FIG. 1): more potent in the tumor cells than MK1.0 or MK2.3
- transcriptional activity compared with promoter of SV40 virus ([3]; tumor cells, FIG. 1): more potent than the promoter of SV40 virus in the tumor cells
- sensitivity to GCV compared to that of the parent strain (normal MRC-5 cells): identical with that of the parent strain
- sensitivity to GCV compared to that of the parent strain [4]: 1000 fold
- MK0.6 promoter activity with increasing amounts of CMV-p53 plasmid (immortalized MRC-5 cells; CMV-p53 0–1 μg co-transfected): decreased
- MK0.6 promoter activity with control CMV-p53R plasmid (immortalized MRC-5 cells; CMV-p53R 0–1 μg co-transfected): no changes
- sensitivity to GCV compared to parent strain (lung cancer cells QG-56; MK0.6-TK-introduced QG-56, GCV seven days, FIG. 3A): 1000 fold
- sensitivity to GCV compared to parent strain (normal fibroblasts HEF): remained the same
- sensitivity to GCV compared to parent strain (neuroblastoma NGP cells): 1000 fold

B2: MK335bp: 335 bp midkine region from −285 to +50, base sequence SEQ ID NO: 4 (nucleic acid, listed as Homo sapiens)
DNA: ACCACCGCTCGGAAGATGGGGCCGGGAGAGGCCGCCGTCGCAGCGCAGAGGGCACCGGCGGGGAGACGCGAGGACGCGGGGCCGGGAACACGGACGCCGGAGTAGAAGCGCGGGGGGGGCGGGCTGGAGCGGGGGCGGGGACGCCGGGGTCGGGGGCGGTGCGGGTTTGAGGGGAGGGGGCGGGGCGGGTCCTTCCCTGGGGGGGTGGGGAGAGGGGGCGGGGGCCCATGTGACCGGCTCAGACCGGTTCTGGAGACAAAAGGGGCCGCGGCGGCCGGAGCGGGACGGGCCCGGCGCGGGAGGGAGCGAAGCAGCGCGGGCAGCGAGCGAGTGAG
- promoter activity compared with MK0.6 [5]: almost the same activity as that of MK0.6

— patent publication US7030099B2, “Tumor specific promoters of the midkine gene that allow for selective expression in P53-inactivated cells” (Research Corporation Technologies, Inc., priority 2000, dated 2006)
